130 substances from the supplement of paper PMC12042874 can be followed below.

± gives the uncertainty stated by the source.

This data set is described as follows: amyloid nucleation score (Sup35N fusion, yeast selection) (log enrichment); library NNK3; higher = more nucleation; inactive = no reads after selection. Summed up:
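Yeast lacking psi expressed peptides of 20 random codons fused to Sup35N, received 100 μM copper sulfate for 24 hours, and were then grown for 7 days at 30°C on medium lacking adenine and uracil. Illumina sequencing of input and output plasmid inserts provided the reads. Nucleation scores are DiMSum log enrichments of output over input, centred on the mode of non-aggregating sequences. Any sequence with under 100 input reads was excluded.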
For the substance AAAMVKAMIDVITGKIPVAE, the amyloid nucleation score entry is “inactive”.

AAETLTRSWLLRSARLMKDG yielded an amyloid nucleation score of -0.233 ± 1.4.

AAFAREDRCSLLVWYSTCWD: the amyloid nucleation score result is “inactive”.

For the substance AAHCYNGVLKGVI, the amyloid nucleation score result was “inactive”.

On to AAKYFCNCRGYFAPRLKC, for which the amyloid nucleation score entry is “inactive”.

AALHKRTAAQNVPKELGLTM had an amyloid nucleation score of 0.227 ± 0.63.

In the case of AALVGLRCIAWNYCDTRKRI, the amyloid nucleation score entry was “inactive”.

As to AAMKGKSTHPHKGSFSLAIA, the amyloid nucleation score result was “inactive”.

For AARISRGVPWYGQEMKGRVR, the amyloid nucleation score entry was “inactive”.

Consider AASNTAFNYLSTRPIMRWLA, for which the amyloid nucleation score entry is “inactive”.

For ACKLIEFSSQQVFVGFGVHA, the amyloid nucleation score entry is “inactive”.

In turn, ACLCNNCLSLNPTWSCFLCL showed an amyloid nucleation score of 2.41 ± 0.087.

For the substance ACSRKISSIVATSRLVSTSG, the amyloid nucleation score result was “inactive”.

Consider ADCNWVNNVMSVKGLMSVVM, for which the amyloid nucleation score result is “inactive”.

ADGWFEIFKGYSAPGAHSVL: the amyloid nucleation score was -0.48 ± 1.1.

Substance ADLATYLTDLTERDAILSPP returned an amyloid nucleation score of 0.424 ± 0.39.

Turning to ADLPVIHNNKRLVVVWHWLN, the amyloid nucleation score result was “inactive”.

ADMCPVDRRVLDLVSKRAMS: the amyloid nucleation score entry is “inactive”.

For ADRVSVIYMS, the amyloid nucleation score result is “inactive”.

For the substance AEHHYAFAFTEF, the amyloid nucleation score entry is “inactive”.

As to AFCNTIETDMNSAPVFLRAA, the amyloid nucleation score entry was “inactive”.

As for AFGLTVFE, the amyloid nucleation score result was “inactive”.

Regarding AFGLVLLSTLHNASIIPRWF, the amyloid nucleation score entry was “inactive”.

In the case of AFGYKFGSANEAVRMLLSLV, the amyloid nucleation score entry was “inactive”.

Take AFKECARRR: the amyloid nucleation score entry was “inactive”.

Consider AFLACLRLKDLDVVFRSPNR, for which the amyloid nucleation score entry was “inactive”.

Regarding AFPTVLLHWRN, the amyloid nucleation score entry was “inactive”.

In the case of AFTCYELAGIWRNVTVPCYL, the amyloid nucleation score entry is “inactive”.

For AFYDNWKGNG, the amyloid nucleation score was found to be 0.141 ± 0.35.

As to AGFLRDLMCDHLEDDGVPAV, the amyloid nucleation score entry was “inactive”.

Regarding AGKDSPGTDHGGGKNNVRV, the amyloid nucleation score result is “inactive”.

On to AGKHFAHSGLFLVCNYTSRT, for which the amyloid nucleation score entry is “inactive”.

AGKYIQNYEVKGCLSAYRAG: the amyloid nucleation score entry was “inactive”.

In turn, AGLLDMARSVDCSGLGYGFF yielded an amyloid nucleation score of -0.82 ± 1.

Consider AGRDIIMYNRAWFNISAA, for which the amyloid nucleation score entry was “inactive”.

In the case of AGVNLRTIRVMYRLPIISYL, the amyloid nucleation score result is “inactive”.

Turning to AGYNYASKSNTLESQTACCS, the amyloid nucleation score entry was “inactive”.

Take AHLLETMDTREVFKIR: the amyloid nucleation score entry is “inactive”.

Turning to AIALLSPSDYVHSLGFHMVA, the amyloid nucleation score result is “inactive”.

In the case of AIAWYLLLHSRRMIWCINCP, the amyloid nucleation score result is “inactive”.

As for AIGRTCGKYMYSFGGLHSSH, the amyloid nucleation score result is “inactive”.

In the case of AIGYLCSALAKVSLFGKWSV, the amyloid nucleation score entry is “inactive”.

As to AIHTSPLIIPPNRFVRYRNR, the amyloid nucleation score result is “inactive”.

For AILLWNCLHSSVSLLKKAYS, the amyloid nucleation score was -0.518 ± 1.4.

Substance AILYTRHG returned an amyloid nucleation score of 0.082 ± 0.38.

AIPSMSSRTLNQVSPIDPDL displayed an amyloid nucleation score of 0.706 ± 0.17.

As for AIVIRLNSVYYYGCGWLLNR, the amyloid nucleation score result was “inactive”.

Regarding AIWLCCQLLLM, the amyloid nucleation score turned out to be 2.63 ± 0.066.

For AKICLFV, the amyloid nucleation score result was “inactive”.

Take AKPIRSSGMFVCTAVYEYVF: the amyloid nucleation score result is “inactive”.

For the substance AKSVSLHIPTCRYHLTYIAF, the amyloid nucleation score entry is “inactive”.

AKTSYQRN: the amyloid nucleation score entry was “inactive”.

AKVQWAV displayed an amyloid nucleation score of -0.106 ± 0.43.

For the substance ALARELIFLLCMNVRLMGFK, the amyloid nucleation score entry is “inactive”.

ALASGVVVKLDICIVNNRMY: the amyloid nucleation score is 3.11 ± 0.073.

As for ALCGNHLKCYKYSGAWRAV, the amyloid nucleation score result is “inactive”.

In the case of ALEAFKRFNLYELGCKGIKV, the amyloid nucleation score entry was “inactive”.

In turn, ALEFRSTENTSSSG showed an amyloid nucleation score of -0.223 ± 0.73.

With ALFLACNH, the amyloid nucleation score worked out at 1.59 ± 0.095.

For ALHWKGLQT, the amyloid nucleation score entry is “inactive”.

Regarding ALMRYVFPKWRDCAAMWDSL, the amyloid nucleation score result was “inactive”.

Turning to ALPPSVF, the amyloid nucleation score result is “inactive”.

For the substance ALQLRVPDDVWLYVCYSRMN, the amyloid nucleation score entry is “inactive”.

For ALRGWILWW, the amyloid nucleation score result is “inactive”.

Take ALSHKVAVYVYC: the amyloid nucleation score entry is “inactive”.

As for ALTAYLVNVWSKYTGMLFSC, the amyloid nucleation score entry is “inactive”.

Regarding ALTWMRMYALCNIEVNHYST, the amyloid nucleation score turned out to be 2.07 ± 0.066.

For ALYNCSCQDNGVQFNK, the amyloid nucleation score result is “inactive”.

Turning to AMHHSNRSKPVSVIRWMWRC, the amyloid nucleation score result was “inactive”.

On to AMPMATLTVPMWLLILFVTF, for which the amyloid nucleation score entry is “inactive”.

As for ANCINRV, the amyloid nucleation score result is “inactive”.

ANHCLCRGSKYLRKRVNLAI: the amyloid nucleation score result was “inactive”.

In turn, ANKSTIGLFMRLPYCPGSN had an amyloid nucleation score of -0.148 ± 0.96.

Consider ANKYASRFVYSISDLSWTIW, for which the amyloid nucleation score result is “inactive”.

On to ANRLC, for which the amyloid nucleation score entry was “inactive”.

In turn, ANSDCLFARFDRLFDVSVED registered an amyloid nucleation score of -0.295 ± 0.71.

In the case of ANYVYNQTVMCS, the amyloid nucleation score entry is “inactive”.

Turning to APAEIFDLLKSMNGTLCRMG, the amyloid nucleation score result was “inactive”.

The substance APHLFLARYLYVCLYCENEW had an amyloid nucleation score of 1.25 ± 0.11.

On to APIWVFRAYLVFL, for which the amyloid nucleation score entry was “inactive”.

For the substance APKVQGDCRNTGCAPMVHKK, the amyloid nucleation score result is “inactive”.

Take APVCQWATKARIKCAHWRRT: the amyloid nucleation score entry is “inactive”.

With APWVMLVVSFPRKESRSFGM, the amyloid nucleation score entry was “inactive”.

Consider AQGKSRPYPLSNSPSGVRRS, for which the amyloid nucleation score entry is “inactive”.

Regarding AQSEAGDF, the amyloid nucleation score entry was “inactive”.

As to AQTYSMCFNITKHPYNSMCG, the amyloid nucleation score result is “inactive”.

As for ARDNDLLNCMMLGLFSRLAF, the amyloid nucleation score result was “inactive”.

ARHVLAGCKRMLYHFEGRVG: the amyloid nucleation score is -0.643 ± 1.3.

Consider ARLSLWS, for which the amyloid nucleation score is 0.733 ± 0.31.

For the substance ARTGYNGYQFRSGRALEITG, the amyloid nucleation score entry was “inactive”.

Take ARVRFSLKRSCMLVHA: the amyloid nucleation score result is “inactive”.

With ASARRCVSVVLIHTAKIHRN, the amyloid nucleation score entry was “inactive”.

As for ASASY, the amyloid nucleation score result is “inactive”.

In the case of ASCQSSIVFRTGSSLATLCD, the amyloid nucleation score entry was “inactive”.

With ASDSCGG, the amyloid nucleation score result is “inactive”.

In the case of ASGVPIADYTNTLKRWWLSE, the amyloid nucleation score result is “inactive”.

Turning to ASHYTVSFFSENDAHRGACR, the amyloid nucleation score result is “inactive”.

For the substance ASIGIRFVDCLYSVLRRWMF, the amyloid nucleation score result was “inactive”.

Regarding ASNYDYVYMPTWDKDRFSRY, the amyloid nucleation score entry is “inactive”.

Substance ASNYYKCCCSNWLCCLMSDR came in with an amyloid nucleation score of 2.91 ± 0.066.

Consider ASPTQVNYFTLVKCMVLRTT, for which the amyloid nucleation score result is “inactive”.

Regarding ASSKCYINKRSNPGRRGLYG, the amyloid nucleation score entry is “inactive”.

As to ASSLMQ, the amyloid nucleation score result is “inactive”.

In the case of ASSSQGRDYVCMSYNFIGGV, the amyloid nucleation score is -0.551 ± 0.55.

On to ASVRTYVDTNHYNLAEILRL, for which the amyloid nucleation score entry was “inactive”.

ASYLNYSFVKIETAVSSNPC registered an amyloid nucleation score of 0.609 ± 0.11.

For the substance ATCLLIGFGPWMSPAG, the amyloid nucleation score result was “inactive”.

With ATDKV, the amyloid nucleation score entry was “inactive”.

As for ATIGRVRGLKDPHLYQCAFM, the amyloid nucleation score result is “inactive”.

Consider ATPFGWDHN, for which the amyloid nucleation score result was “inactive”.

On to ATQLCCIVCRGLGPGMGEES, for which the amyloid nucleation score entry was “inactive”.

For the substance ATTDGTVSCVYPRFRLFWCI, the amyloid nucleation score entry was “inactive”.

Take AVGLRRPLCMYF: the amyloid nucleation score result was “inactive”.

As for AVICYS, the amyloid nucleation score result was “inactive”.

AVINVILIIVSECRNSN registered an amyloid nucleation score of 1.9 ± 0.075.

As to AVISNRFYEEKLYDATYLRL, the amyloid nucleation score result is “inactive”.

On to AVLEMQLTIW, for which the amyloid nucleation score entry was “inactive”.

Turning to AVQYPSVCWNYKSNSMHC, the amyloid nucleation score entry is “inactive”.

On to AVRFNHAYISQKPQRMLL, for which the amyloid nucleation score entry was “inactive”.

As for AVTDLDIFICSG, the amyloid nucleation score result is “inactive”.

Take AVTKNVTERFHMLMPKDWVG: the amyloid nucleation score result was “inactive”.

As to AVYCPINLLAF, the amyloid nucleation score entry was “inactive”.

For AVYQLDMCDLVMVSLDGTVR, the amyloid nucleation score entry is “inactive”.

Consider AWGSVYVALVWRWNFRCVR, for which the amyloid nucleation score entry is “inactive”.

AWSDPSDQQPEQLRVVVDFL: the amyloid nucleation score result was “inactive”.

Consider AYIMDSSWWV, for which the amyloid nucleation score entry was “inactive”.

AYLIRIGVIRLFLTLCCG: the amyloid nucleation score entry is “inactive”.

AYLSFLLFCCCKTLVWLVLR: the amyloid nucleation score stood at 0.841 ± 0.13.

Consider AYLSSTSANF, for which the amyloid nucleation score entry is “inactive”.

Take AYMKGVWFRDEKDISFLIWI: the amyloid nucleation score result was “inactive”.
